{
  "source": "paper PMC8567202",
  "about": "“Phosphoinositide-binding activity of Smad2 is essential for its function in TGF-β signaling” (The Journal of Biological Chemistry, 2021)",
  "assay_type_in_all_cases": "cell-based",
  "key": {"HeLa cells [1]": {"system": "HeLa cells", "assay": "Ratiometric PI(4,5)P2 imaging", "conditions": "10 ng/ml TGF-β", "procedure": "(§1) Figure 4 Quantitative imaging analyses of spatiotemporal dynamics of Smad2.A, TIRF images of mouse EGFP-Smad2-WT transfected into HeLa cells whose endogenous Smad2 is suppressed by siRNA. Images were taken before and 5 min after TGF-β stimulation (10 ng/ml) with and without PI(4,5)P2 depletion. A pseudo-coloring scheme was used with orange and blue representing the highest and the lowest intensity, respectively. B, kinetics of TGF-β stimulated (10 ng/ml) PM localization of EGFP-Smad2-WT (blue), -K420A (green), and -W422A (orange) transfected into HeLa cells the endogenous Smad2 of which was suppressed by siRNA. For EGFP-Smad2-WT, the effect of PI(4,5)P2 depletion (black) and TβRI inhibition by SB-431542 (10 μM for 36 h) (red) were measured. Data points indicate average ±S.D. (n = 10 cells). C, spatially resolved PM PI(4,5)P2 concentration ([PI(4,5)P2]) profiles calculated from two-channel cross-sectional images of HeLa cells (before and 5 min after 10 ng/ml TGF-β stimulation and after PI(4,5)P2 depletion). Each cell is a representative of more than ten cells analyzed. Spatially averaged [PI(4,5)P2] values for each cell type are shown. […] E, time courses of the half-life of colocalization for SNAP-TMR-labeled TβRI and EGFP-Smad2 determined by dual color single-molecule tracking analysis. […] For EGFP-Smad2-WT, the effect of PI(4,5)P2 depletion (purple) was measured. […]"}, "TβRI": {"system": "TβRI", "assay": "Dual color single-molecule tracking, TβRI and EGFP-PLCδ-PH", "conditions": "HeLa cells"}, "HeLa cells [2]": {"system": "HeLa cells", "assay": "TIRF imaging of PM localization of EGFP-Smad2", "conditions": "HeLa cells, 10 ng/ml TGF-β, SB-431542 10 μM for 36 h where used", "procedure": "as §1"}},
  "data": [
    {"compound": "TGF-β: TGF-β1 was purchased from Millipore sigma (Cat no. T7039-2UG)", "values": [
      {"measurement": "effect on PM PI(4,5)P2 distribution and spatially averaged concentration", "setting": "HeLa cells [1]", "result": "neither spatiotemporal distribution of PI(4,5)P2 nor the spatially averaged PI(4,5)P2 concentration was altered"}
    ]},
    {"compound": "EGFP-phospholipase Cδ-pleckstrin homology domain [EGFP-PLCδ-PH]", "values": [
      {"measurement": "time of maximal dwell time of TβRI-PLCδ-PH complex after TGF-β stimulation", "setting": "TβRI; 10 ng/ml TGF-β, n = 10 cells", "result": 5, "unit": "min"},
      {"measurement": "colocalization of TMR-SNAP-TβRI and EGFP-PLCδ-PH after PI(4,5)P2 depletion", "setting": "TβRI; before and after TGF-β stimulation", "result": "eliminated colocalization"}
    ]},
    {"compound": "NC(=O)c1ccc(-c2nc(-c3ccc4c(c3)OCO4)c(-c3ccccn3)[nH]2)cc1", "note": "[SB-431542, reference compound]", "values": [
      {"measurement": "PM residence / dissociation of Smad2", "setting": "HeLa cells [2]", "result": "greatly elongated the PM residence of Smad2"}
    ]}
  ]
}
